This data set can be described thus: soluble on expression in E. coli; label from the status in PepcDB or PDB records.
For “MGSDKIHHHHHHMSSSQQIAKNARKAGNILKTISNEGRSDILYKIHDALKANAHAIEEANKIDLAVAKETGLADSLLKRLDLFKGDKFEVMLQGIKDVAELEDPVGKVKMARELDDGLTLYQVTAPVGVLLVIFESRPEVIANITALSIKSGNAAILKGGKESVNTFREMAKIVNDTIAQFQSETGVPVGSVQLIETRQDVSDLLDQDEYIDLVVPRGSNALVRKIKDTTKIPVLGHADGICSIYLDEDADLIKAKRISLDAKTNYPAGCNAMETLLINPKFSKWWEVLENLTLEGGVTIHATKDLKTAYFDKLNELGKLTEAIQCKTVDADEEQDFDKEFLSLDLAAKFVTSTESAIQHINTHSSRHTDAIVTENKANAEKFMKGVDSSGVYWNASTRFADGFRYGFGAEVGISTSKIHARGPVGLDGLVSYQYQIRG”, the “soluble on expression in E. coli” value is recorded as “not soluble”.

Consider “MGSDKIHHHHHHMLMSVTTENAPVQGQTTLQENSAGEGVYASLFEKINLTPASCLGDINDFLDDAALSEAPAAERLTAAMQVFMERIRQSGQRVEKLDKTLIDHHIAELDFQISRQLDAVMHHQEFQQVESLWRGLKQLVDNTDYRQNVKTEILDVAKDDLRQDFEDAPELIQSGLYWHTYTAEYDTPGGEPIGSVISAYEFDASPQDVALLRNISRVSAAAHMPFIGAVGPAFFLKETMEEVAAIKDIGNYFDRAEYIRWKAFRETDDARYIGLVMPRVLGRLPYGPDTVPVRSFNYVEQVKGPDHEKYLWTSAAFSFASNMVKSFVNNGWCVQIRGPQAGGAVKDLPIHLYDLGTGNQVKIPSEVMIPETREFEFASLGFIPLSYYKNRDYACFFSANSAQKPALYDTADATANSRINARLPYIFLLSRIAHYLKMIQRENIGTTKDRRLLELELNTWVRSLVTEMTDPGDELQASHPLRDASVVVEDIEDNPGFFRVKLYAVPHFQVEGMDVNLSLVSQMPKAKA”, for which the “soluble on expression in E. coli” value was “not soluble”. As to “MGSDKIHHHHHHMNTYIKILLGTCCSFSILSCSNNLDETVYSKVTEQTYNYTVDDFTPSIASVYSYLRSQSDHWGYFCAQEVSADAIVMPPNASGWDDGGAYRRMHYQTWNSEQDHVKNIWSWFYQGALLCNKIIEQIKTGVIPTPSDTEKTQGLAELRAMRAYYYWQICDNFGDAPLVTTTAMDLPAKNTRREIFDFVENELIEVIPNLSEEVGGNYYGRMTKWAAKALLANLYLNAQVYINEARWNDCITQCDDIINSGKFTLAENYKDLFRALGVESCKEIIFTIPYDENFATGNSIFMFSWHGELKKKYNTIDTPWGCGSAMGVTQFIDTYNEKDSRLADTWLMGQQLAADGTPLYGTYDKMGEPLIYTKDIPSGNYTSELEGYRMNKFEVAENSYSSSNTDIPVFRYAEIMMMKAECLLRTGKSGAGTLVTQVRQRAFKDNPELATVTDSQLAGNTCYQYGYVEDYKIVDRGNTDPIQFGRMYDELGWEFAWEMHRRRDAIRFGIYTTKSWLSHKPEGDYRSVFPIPETVLTSNPNLEQNPNYL”, the “soluble on expression in E. coli” value is given as “not soluble”. As for “MDDLVKSSQKALENQVLRDQVSSYEREIMLQNENMEALRSFRHDMKRHFAEISVLASTGEIEQIKNYVSAMENNLVESRRLVDSGNTALDTVLNYMLQRAVDKKIQLNVKVVVPSDLKLSAYDMNIIFGNLLENAIEAQKDVKNPSIDLEINYLMDSLVVEISNRCLQKVIFKGGLPITTKQSVREHGYGLKNVKKVLDKYISTLDFECSDERFTVKILMKI”, the entry is “not soluble”; as for “MGSDKIHHHHHHMMNLSELAPDYIRAIQPYQPGKPISELVRDLGLNKDEVVKLASNENPLGTSPLAKEAMIQALNESARYPDGSGFELKAALSERLGMPADQIVLGNGSNDVLELATRIFLHPDSTAIYSQYAFAIYPLLAQAVGARGIAVPARNYGHDLEAMLAAVTPETRIIFIANPNNPTGTLCDARDLLRFMERVPQDVLVILDEAYDEYLPEANKANSIAWLKNFQNLVITRTFSKAYGLASVRVGFALAHADIANLMNRIRQPFNVNSIGLAAAQAALKDVEFVKLAYMTNRTGMQQMTHGLDQLGIEYIPSFGNFVCCHIDGHPANTLKIYRNLLQQGVIVRPLGNYDMLNHLRVTIGIEEENKRFLQALEQALKELD”, “not soluble”. As to “MPWWEQNIGMGGGALSAKQQTSADSRTESLQSLSDERRDFIQKSLDAWCANLGYKDSTVNMLTLSRTLCISKDELSVFFDQYLKTTFRIWLGDIRFNAAKKMMLEFPDYSNDIISAECGFSARTYLYRIFKSKEGCTPTEWREEQVANAAPDDKKQD”, the “soluble on expression in E. coli” value is recorded as “not soluble”.

“MFADRLFNAMERNEPAPGMVLVAAPSMESEDFARSVILIIEHSEYATFGVNLASRSDVAVFNVIPEWVPCVTKPQALYIGGPLNQQSVVGVGVTAQGVDAARVDNLTRLANRLVMVNLGADPEEIKPLVSGMRLFAGHAEWAPGQLAQEIENGDWFVAPALPSDVTAPGSVDVWGDVMRRQPMPLPLYSTFPVNVVGENLEHHHHHH”: the “soluble on expression in E. coli” value is “soluble”.

On to “MGSDKIHHHHHHMKLTAQIHIEKMAYELRDHAHAVIKNVLLMSNISTLSLQLAMRELAQHSRVALHFHPDQIDNRGLTVVDGLLRDGVYKSQFETHVSNGHLSPELGGSRDHWENQLFGHSYSGIKHRPKYGALDFGLCPLGPAPRFGSCYLVTHPQILSRCTFSYMDSHRLPKEKGTIKCFDAILAALLSESFERQYALGVSGLKPSKLIEHFSQHLTDDISRRFDLVPSGNLDHYIEAQIHGDVSLDQDIAILVADPSYMGTAIGDSLIALCHEYGIELHWHQGRQINVAQIPDDFRGAAMPILAQSLAENELINAEIIGRAAYQLQKQPASWSERGAHSKKRQDLKLLWHVLVKYGESTGQ”, for which the “soluble on expression in E. coli” value is “not soluble”. In the case of “MSYLLALDAGTGSIRAVIFDLNGRQLAVGQAEWKHLSVDNVPGSMEFDLTTNWQLACQCIRQALDAARLSAADIQSVACCSMREGIVLYDRNGEAIWACANVDARASREVAELKEIHDFRFESEVYEVSGQTLALSAMPRLLWLAHHRPDIYRKAATITMISDWLAAKLSGELAVDPSNAGTTGMLDLFSRDWRPALLDMAGLRADMLSPVKETGTLLGAVTEAAAQQSGLRAGTPVVMGGGD”, the “soluble on expression in E. coli” value is recorded as “not soluble”.

Consider “MGSDKIHHHHHHMDKALLHFDNSYARDLEGFYAPWQAATAPAPRLLLLNQALAEELGLDSATLDDELGAAIFSGNQVPEGALPLAQAYAGHQFGHFSPQLGDGRALLLGELIDRHGRRRDMQLKGSGRTPFSRGGDGKAALGPVLREYVIGEAMHALGIPTTRALAAVTTGETVRRETWLPGAILTRIAASHIRVGTFQFFAARNENVRVKQLADYTIARHYPPLKGADNPYLELFAAVSAAQAALIARWMLVGFIHGVMNTDNMSIAGETIDYGPCAFMDNYDPETVFSSIDAHGRYAYAHQPLIAQWNLTRFAETLIDLVHPDPDEAARLLTEQLNEFPKLYTRHWLDGMRAKMGLATAEDGDLALAQALLSAMEGQNADFTQVFRGLSAAVRGDPAQVRAHFVNQAPFDLWLAQWQARLAHESATAEARAEAMDQVNPLYIPRNHKVEEALAAATLNQDLTPFKALLAVLERPFAERPGLESYTQPAPEDFGPFKTFCGT”, for which the “soluble on expression in E. coli” value is reported as “not soluble”. Consider “GPGSMNFTQQLWSVKEWGRVMATRSEYVQIVHDATNDEKWGPTGPQMDAVCNAYPRGGPEILNELRTRLNNRDKSWRPCYKSLLVIDYLARNVDDRYLPEISALVPIIRTISTSFYYTNPKGVDHGVSVRERAKKVADLLSDGLQLREERMVAAQIKAKLSHNASDGGGPNSDAPYSGAGSYGGSRDCDRYRSYVKGSRQAYDSYRSSPPPSAVLSRPRTKEEQERCDMEMALRLQRDEERRSGVSAEQLEEMYAT”, for which the “soluble on expression in E. coli” value is listed as “soluble”. For the sequence “MKVLITSGGTTEPIDNVRGISNFATGSLGKVTAENFLNAGHEVYLLAGLQAKLPEFTDRLTYIPIEGTHDLYEQMKNLVPDMDVVIHSMAVSDYRPIYMTGLENFTDKFSKEELLNFRPEKVGKISSKSDYQIMLLEKTPKIISYIKEWNPNVLLFGFKLLVGVEKSELLSVAREKLLTNHADFILANDLENIHGNDHQAFLVSKNHEITLKTKAEIADRLLKTSEELKND”, the “soluble on expression in E. coli” value is on record as “soluble”. The value for “MSIKIDLNKCVGCQKCINICPGSLIDKNNDGKAYIKYPKDCWGCTACLKECKFKAIKYFLGADIGGNGSYMYVSEKGEELEWHMINEDGKEKIITTSRKESNKYLEHHHHHH” was “not soluble”; that for “GPGSMDEFVYNRCSLNPIHWVLMLKGCLVDLFFSVRPINFSYSRVGMTNLAGERDQAACLREIRRAVRIIEGRKRTVATGTNKDSFQDMDSRCHTPERPLRLHLVLFGFSRGATTTFYTAMKLPPELATYVSLVVVEAAFDTLHNVIESSCWFPSFVLWFFRTFCDYSGEDAYKYDRNQIHLRCPIAFVMSVKDTRVPNELTQRLIDNVKADCPQIPAVEVLQLKHSRHPLMAVGNREDQDAYVAFMEGLYDRYCN” was “not soluble”. The value for “MLPDSSVRLNKYISESGICSRREADRYIEQGNVFLNGKRATIGDQVKPGDVVKVNGQLIEPREAEDLVLIALNKPVGIVSTTEDGERDNIVDFVNHSKRVFPIGRLDKDSQGLIFLTNHGDLVNKILRAGNDHEKEYLVTVDKPITEEFIRGMSAGVPILGTVTKKCKVKKEAPFVFRITLVQGLNRQIRRMCEHFGYEVKKLERTRIMNVSLSGIPLGEWRDLTDDELIDLFKLIENSSSEVKPKAKAKPKTAGIKRPVVKMEKTAEKGGRPASNGKRFTSPGRKKKGRLEHHHHHH” was “soluble”; that for “MLTSFGQILRKLFCIDCSERLLDMADKLGVSVAFLSSVKIGKKSVPVGIFVRTLENFSQQDLAEFKKLLEKVGKKRGTLYRHVGKSYSRTFIYTSRTLKKHT” was “not soluble”. Take “MATLTAKNLAKAYKGRRVVEDVSLTVNSGEIVGLLGPNGAGKTTTFYMVVGIVPRDAGNIIIDDDDISLLPLHARARRGIGYLPQEASIFRRLSVYDNLMAVLQIRDDLSAEQREDRANELMEEFHIEHLRDSMGQSLSGGERRRVEIARALAANPKFILLDEPFAGVDPISVIDIKRIIEHLRDSGLGVLITDHNVRETLAVCERAYIVSQGHLIAHGTPTEILQDEHVKRVYLGEDFRL”: the “soluble on expression in E. coli” value is given as “soluble”. The value for “MSLDNVIDEVVWVIGDEAILKSDVEEARLAALYEGRKFDGDPYCVIPEELAVQKLYMHQAVLDSIEVPEAEVIQRVDYQISNYIQALGSRERMEAEFNKTSTQIREAMRENARDGLIVQRMQQKLVGDIKVTPAEVRRYFKELPQDSIPYVPTQVEVQIITQQPKIPVAEIEDVKRRLREYTDRINKGESDFSTLALLYSEDRGSAIKGGETGFMGKGQMVPEYANVAFNLQDTKKISKIVESEYGFHIIQLIEKRGDRINTRHILLKPKVSDKELDEANARLDSIANDIRSDKFTFDQAASALSQDKDTRNNHGLMQNPQNQTAKFEMQDLPQEIAKVVDKMNIGEISKAFTMVNPKDGKEVCAIVKLKSRINGHKATITDDYQNLKEIVLDKRREEALQKWIVEKQKHTYVRINPAWQRCDFKYPGWIKKEGHHHHHH” was “soluble”.

As for “MGSDKIHHHHHHMLCNETTSTRDLILLGLKRHGERSVGEMAKELEITEMAVRRHIQALEKDGFVQTKLVRQAMGRPTTKYLLTEKGEERFPRNYLPLTLGFLKDIEELSGIDMIHVLFEKRKERLLAEYANQMKGCSFSERVEVLAQIQNDNGYMVEWKKIDDDTYQFIEYNCPISQVAKAYPVACACEKKLFKELLQTEAVVDNCCAAKDEAGYCSYTLKKPSVDG”, the “soluble on expression in E. coli” value is on record as “not soluble”. On to “MDNHGILESLLFTAGDEGLDEKQLLEILDMSKDQLVELIENYSSHGLMIQRFGMTYVLTTKKEAATYIEQLIEQKSQMKLSQAAMEVLSIIAYNQPLSRSDIELIRSINSDGAVKTLIAKGLVEAKVVNEQRSQQLITTDLFLNVFGISNIEDLPTTEEDDEEMDAFFSNLVNQKGENND”, for which the “soluble on expression in E. coli” value was “not soluble”.

The values above are taken from the DeepSol protein solubility set.
